In data set [1] the test system is GFP reporter transcript (device in 3′ UTR; GFP/mCherry two-color reporter construct). The experiment in a line: Flow cytometry validation of reconstructed switch/ribozyme sequences in two-color reporter plasmid. In kind it is cell-based, budding yeast strain W303a. The following applies: for μ (-tgt), median GFP/mCherry ratio (basal level): absence of target ligand, at least 3 independent transformants, ± standard error of the mean. From the text: The RNA devices were individually synthesized, integrated into the two-color characterization plasmid, and assayed in yeast via flow cytometry. The μ values obtained from flow cytometry analysis of the reconstructed sequences are tightly correlated with those obtained through the FACS-Seq analysis (FIG. 3a; R^2=0.98). We compared the validated activation ratios (μ−target/μ+target) for several of the best performing switches from the tertiary interaction switch libraries with those from previously optimized RNA devices that function through secondary structure rearrangements (FIG. 3b, Table 1).
Specific switch sequences were synthesized from overlapping oligonucleotides using overlap-extension PCR as described for the device library constructions. These were gap-repair transformed into the yeast two-color screening plasmid along with control plasmids by the lithium acetate/single-stranded carrier DNA/polyethylene glycol method, with each switch sequence verified using Sanger sequencing. At least three individual colonies were picked and inoculated in SC-URA media. Cultures were grown overnight, back-diluted 20:1 to an OD600˜0.07 and then grown 6 hrs in the absence and presence of a ligand target, at the same ligand concentrations as used for the FACS-Seq assays. The cells were then spun down and resuspended in an equal volume of 1×PBS buffer (Life Technologies) with 1% BSA (Fraction V, EMD Millipore) and a DAPI viability dye (Life Technologies). GFP was excited at 488 nm and measured with a bandpass filter of 525/50 nm. mCherry was excited at 561 nm and measured with a bandpass filter of 615/20 nm. DAPI was excited at 405 nm and measured with a bandpass filter of 450/50 nm. Prior to each use, voltages of fluorescence PMT detectors were calibrated with MACSQuant calibration beads to fix GFP and mCherry levels. For each culture, 10 μl of sample was analyzed, which captured 50,000-150,000 events while also providing cell density measurements. The data was analyzed using a custom MATLAB program to gate for mCherry expression above the no-color controls and non-saturating values for GFP and mCherry, and then extract μ, the median GFP/mCherry ratio. Since cultures that contain tetracycline produce non-specific fluorescence in the GFP emission region, the μ values for this condition were corrected by subtracting a fixed offset.
Note that the NGS data is based on cells sorted through a FACSAria II Cell Sorter. An in-house flow cytometer (Miltenyi Biotec MACSQuant VYB) was used for validation measurements. The GFP and mCherry levels are given in arbitrary fluorescence units that differ between the two instruments, but in all cases are treated as a linear function of the actual protein levels in order to compute μ. […]

Data set [2] has the same test system. The experiment in a line: Flow cytometry dose-response assays on reconstructed theophylline-responsive RNA devices. In kind it is cell-based, budding yeast strain W303a. Particulars: theophylline 0-20 mM; 4-parameter logistic fit, Hill slope 1.0; [80% confidence interval]. For orientation: Flow cytometry measures light scatter and fluorescence of single cells or particles in a stream.
Procedure: Median GFP/mCherry ratios were computed for at least triplicate independent cultures assayed at theophylline concentrations of 0, 0.16, 0.31, 0.62, 1.25, 2.5, 5, 10, and 20 mM. The data were fit to a 4-parameter logistic model with the Hill slope fixed at 1.0; the 80% confidence interval for the EC50 fit is shown. A range of one standard deviation over the replicates is shown for the mean activity levels and activity ratio.

Data set [3] has as its system RNA device self-cleavage (ribozyme). In words: In vitro SPR-based ribozyme cleavage assay. Particulars: 500 μM MgCl2, 25° C. The class given is biochemical. The protocol: Representative FACS-Seq sort identified theophylline-responsive RNA device cleavage kinetics and ligand sensitivity were determined by surface plasmon resonance (SPR), using previously described protocols. Briefly, the RNA device DNA templates were amplified by PCR (PFU Ultrall HS; Agilent) with primers containing overhangs corresponding to the T7 RNAP promoter and cis-blocking sequences that prevent device cleavage during in vitro T7 transcription (Table 2; SPR templates). A second PCR (KAPA HiFi PCR Kit; Kapa Biosystems) with short primers was performed to enrich the product for full-length sequences (Table 2; SPR_fwd_primer, SPR_rev_primer). […]
SPR-based cleavage assays were performed at various theophylline concentrations to generate dose-response curves. The RNA dissociation rate constant (kd) at each theophylline concentration ([theo]) was fit to the sigmoidal equation kd=kd,min+(kd,max)/(1+[theo]/IC50) using MATLAB, where kd,max and kd,min are the maximum and minimum RNA dissociation rate constants, evaluated in absence of and with the highest theophylline concentration assayed, respectively. […]

Consider five molecules from US10513702B2, “Synthetic hammerhead ribozymes with ligand-responsive tertiary interactions” (The Board of Trustees of the Leland Stanford Junior …, priority 2015, dated 2019).

A word on the EC50: it is the midpoint of the concentration-response curve. A higher EC50 goes with a less potent agent.

Where a chain is given by its changes, count along the chain named.

Turning to “sTRSV: wild-type tobacco ringspot virus hammerhead ribozyme, SEQ ID NO: 7; loop I TGTGCTT, loop II GTGA (DNA GCUGUCACCGGAUGUGCUUUCCGGUCUGAUGAGUCCGUGAGGACGAAACAGC; listed as RNA, chemistry not fully specified) [reference compound]”, the “μ (-tgt), median GFP/mCherry ratio (basal level)” value in data set [1] amounted to 0.051±0.003.
Still for that read-out and setting: to “sTRSVctl: inactive control ribozyme with scrambled catalytic core, SEQ ID NO: 8 (DNA GCUGUCACCGGAUGUGCUUUCCGGUACGUGAGGUCCGUGAGGACAGAACAGC; listed as RNA, chemistry not fully specified) [reference compound]” belongs 5.8±0.3.

B1: L2b8-t47: previously optimized secondary-structure switching theophylline-responsive RNA device, SEQ ID NO: 3 (nucleic acid)
DNA: AAACAAACAAAGCUGUCACCGGAUGUGCUUUCCGGUCUGAUGAGUCCGUUGAGUAUACCAGCAUCGUCUUGAUGCCCUUGGCAGACUGUAUACGGAGGACGAAACAGCAAAAAGAAAAAUAAAAA
modifications: listed as RNA, chemistry not fully specified
Take B1: the EC50 in data set [2] was 5.7 mM. Also, the “Activation Ratio” value in data set [1] (5 mM vs 0 mM theophylline, ± SEM) came to 2.8±0.3.

B2: L2b8: previously optimized secondary-structure switching theophylline-responsive RNA device, SEQ ID NO: 1 (nucleic acid)
DNA: B1 DNA with A52U, G53C, U54C, A85G, C86G, U87A, G88C, U89G, A90G, U91G
modifications: listed as RNA, chemistry not fully specified
On to B2, for which the concentration giving a half-maximal response (EC50) in data set [2] was 4.9 mM.

B3: L2b8-a1: previously optimized secondary-structure switching theophylline-responsive RNA device, SEQ ID NO: 2 (nucleic acid)
chain: AAACAAACAAAGCUGUCACCGGAAUCAAGGUCCGGUCUGAUGAGUCCGUUGUCCAUACCAGCAUCGUCUUGAUGCCCUUGGCAGGGACGGGACGGAGGACGAAACAGCAAAAAGAAAAAUAAAAA
modifications: listed as RNA, chemistry not fully specified
B3 showed a 50% effective concentration (EC50) in data set [2] of 10.4 mM. Also, the “kd, ribozyme cleavage (dissociation) rate constant” value is 0.00283 s⁻¹ in data set [3] (1 mM theophylline) and 0.01 s⁻¹ in data set [3] (absence of ligand (0 mM theophylline)). Also, the “μ (-tgt), median GFP/mCherry ratio (basal level)” value in data set [1] came to 0.109±0.004.
